Measurements taken from patent US20240425603A1 (Janssen / Centocor, published 2024).
Several values for one entry are separate records, joined by “and”; a condition that tells them apart may be missing. Equal values may be shown once.

T1: NECTIN1 Isoform Gamma (NM_203286.1) (human, UniProt Q15223-3 31-352)
T1 construct: whole, on cells
T1 sequence (looked up): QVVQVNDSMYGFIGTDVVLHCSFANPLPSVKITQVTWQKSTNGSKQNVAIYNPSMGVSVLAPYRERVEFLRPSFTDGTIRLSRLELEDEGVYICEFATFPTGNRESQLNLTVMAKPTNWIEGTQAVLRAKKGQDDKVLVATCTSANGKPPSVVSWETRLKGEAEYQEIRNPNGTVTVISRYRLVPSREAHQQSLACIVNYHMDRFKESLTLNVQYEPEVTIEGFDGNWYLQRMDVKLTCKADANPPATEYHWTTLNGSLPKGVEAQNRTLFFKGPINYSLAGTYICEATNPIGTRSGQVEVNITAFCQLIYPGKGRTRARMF

T2: mouse VEGFR1 (soluble antigen of the KinExA and SPR affinity assays) (mouse, UniProt P35969 23-759, limits assumed)
T2 sequence (looked up): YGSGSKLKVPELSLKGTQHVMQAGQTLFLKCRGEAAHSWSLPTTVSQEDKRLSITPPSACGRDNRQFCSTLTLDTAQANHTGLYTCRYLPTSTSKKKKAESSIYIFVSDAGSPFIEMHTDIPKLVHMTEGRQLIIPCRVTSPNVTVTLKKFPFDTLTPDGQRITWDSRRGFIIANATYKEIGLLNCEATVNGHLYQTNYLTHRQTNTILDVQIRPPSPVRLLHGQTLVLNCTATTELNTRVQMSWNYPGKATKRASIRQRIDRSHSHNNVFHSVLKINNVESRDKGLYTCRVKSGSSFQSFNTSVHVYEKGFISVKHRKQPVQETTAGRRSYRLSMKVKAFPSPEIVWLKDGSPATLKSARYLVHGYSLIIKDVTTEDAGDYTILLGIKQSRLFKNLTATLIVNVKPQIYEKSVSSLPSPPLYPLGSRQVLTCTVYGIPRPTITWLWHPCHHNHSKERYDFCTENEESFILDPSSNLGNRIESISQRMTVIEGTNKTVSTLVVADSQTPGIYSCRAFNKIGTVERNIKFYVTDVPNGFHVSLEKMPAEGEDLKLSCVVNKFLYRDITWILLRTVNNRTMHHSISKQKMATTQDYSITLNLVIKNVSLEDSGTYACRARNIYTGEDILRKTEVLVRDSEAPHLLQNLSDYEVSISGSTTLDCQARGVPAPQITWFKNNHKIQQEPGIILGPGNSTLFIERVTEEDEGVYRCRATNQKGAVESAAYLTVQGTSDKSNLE


Key:
[1] = target: T1, NECTIN1 Isoform Gamma (NM_203286.1); assay: Retrogenix cell microarray, fixed HEK293 cells; blank cells in Table 32 (topology TS and S)
Method: This human cell microarray methodology has been previously described in the literature (Freeth, J. et al, SLAS Discovery, 25 (2), 223-230, 2020). Primary screening was performed on slides arrayed with fixed HEK293 cells with each spot of HEK293 cells expressing either a unique protein from the cell surface-ome, a cell surface tethered human secreted protein, or a heterodimeric human cell surface receptor. In total, 5,528 unique gene products were represented in this primary screen (4,103 human plasma membrane proteins (+some untethered secreted proteins)+1,425 cell surface tethered human secreted proteins). Briefly, slides containing fixed transfected HEK293 cells were overlaid with a solution of test antibody (2 μg/mL), incubated, and washed. Binding was assessed using AlexaFluor647-conjugated anti-human IgG Fc detection antibody and fluorescence quantitation on ImageQuant. […] Located in the ER, off-target binding to CRELD2 was of less concern. Nectin-1, FGFR2, and ISLR, on the other hand, display broad tissue expression profiles. Cross-reactivity to these proteins is undesirable because binding to these targets might have a significant impact on pharmacokinetic and biodistribution profiles of the molecules. This off-target binding was subsequently confirmed by flow cytometry on live HEK293 cells transiently expressing these ‘off-target’ proteins identified in the primary screen.

[2] = target: T3, cynomolgus monkey VEGFR1 (soluble antigen of the KinExA and SPR affinity assays) (cynomolgus monkey); assay: SPR
[3] = target: T2, mouse VEGFR1 (soluble antigen of the …); assay: KinExA, solution
Method: (§1) Kinetic exclusion assay (KEA; KinExA) was used to analyze the binding of anti-VEGFR1 antibodies to human, mouse and cynomolgus monkeys VEGFR1. KEA is a fluorescence-based solution method, and it is described in detail in the literature (Darling and Brault, 2004). To measure the affinity of an interaction, a series of solutions with a fixed concentration of one interactant (A) and varying concentrations of another interactant (B) are prepared and allowed to reach equilibrium. After equilibration, the concentration of free A is determined by flowing the equilibrated mixture through a column packed with beads modified with reactant B. Free A binds to the beads and is then detected using a fluorescently labeled polyclonal antibody.
(§2) Briefly, fixed concentrations (300 pM, 60 pM, 12 pM, 2.4 or 0.5 pM) of Ab were used to prepare a serial dilution of the antigen (2 nM to 0.52 pM, or 800 pM to 5.37 fM). The complex titrations were incubated at RT to reach binding equilibrium for at least 2 days. After incubation, the samples were run on the KinExA3200 or KinExA4000 instrument to assess free antibody in the reaction. During these studies some of the data were rejected because the experiments failed or failed the acceptance criteria. For mouse VEGFR1 the 60 and 300 pM concentrations were rejected due to high titrant related NSB. The dissociation equilibrium constant, (KD), was determined using the n-curve analysis feature of the KinExA Pro software. This program uses nonlinear least-square regression analysis of the globally fitted data to a 1:1 binding model. (CI=confidence interval).

[4] = target: T3, cynomolgus monkey VEGFR1 (soluble …); assay: KinExA, solution
Method: as §1, §2

Row | Binder | binding result [1] | Kd [2] | Kd [3] [pM] | Kd [4] [pM]
1 | VGFB54 (antibody, human IgG1, lambda, L234A L235A, V domains shown, human IgG1 (L234A/L235A/D265S), lambda, 2H:2L; from OmniChicken) VH: EVQLLESGGGSVQPGGSLRLSCTASGFNFEDYGMNWVRQAPGKGLDWVSSINRNGDISTYHVDSVKGRFTISRDNSKNTLYLQMNSLRAEDTAIYYCTKNHDYHGMDVWGQGTTVTVSS VL: not shown | no binding (tested: 2 µg/mL) | 16 pM and 18 pM |  | 
2 | VGFB78 (antibody, human IgG1, lambda, L234A L235A, V domains shown, human IgG1 (L234A/L235A/D265S)) VH: EVQLLESGGGLVQPGGSLRLSCAASSFTFYNYDMTWVRQAPGKGLEWVAGIGTSGTDMYYADSVKGRFTISRDNSKNTLYLQMNSLRAEDTAIYYCAKDYYYYGMDVWGLGTTVTVSS VL: not shown |  |  | 3.85 | 0.71
3 | VGFB82 (antibody, human IgG1, lambda, L234A L235A, V domains shown, human IgG1 (L234A/L235A/D265S)) VH: EVQLLESGGGLVQPGGSLRLSCEASGFDFSTYAMNWVRQAPGKGLEWVATINSEGTITSHAPAVKGRFTISRDNSKNTAYVQMNSLRAEDSAVYYCSSTTGTTHGMDVWGRGTTVTVSS VL: not shown | no binding (tested: 2 µg/mL) | 38 pM and 23 pM | 23 | 0.3
